The test addresses phosphoinositol 3-kinase (PI3-kinase), p85 subunit (human (endogenous in AGS)) (UniProt P27986).
UniProt P27986, sequence (P27986 whole entry): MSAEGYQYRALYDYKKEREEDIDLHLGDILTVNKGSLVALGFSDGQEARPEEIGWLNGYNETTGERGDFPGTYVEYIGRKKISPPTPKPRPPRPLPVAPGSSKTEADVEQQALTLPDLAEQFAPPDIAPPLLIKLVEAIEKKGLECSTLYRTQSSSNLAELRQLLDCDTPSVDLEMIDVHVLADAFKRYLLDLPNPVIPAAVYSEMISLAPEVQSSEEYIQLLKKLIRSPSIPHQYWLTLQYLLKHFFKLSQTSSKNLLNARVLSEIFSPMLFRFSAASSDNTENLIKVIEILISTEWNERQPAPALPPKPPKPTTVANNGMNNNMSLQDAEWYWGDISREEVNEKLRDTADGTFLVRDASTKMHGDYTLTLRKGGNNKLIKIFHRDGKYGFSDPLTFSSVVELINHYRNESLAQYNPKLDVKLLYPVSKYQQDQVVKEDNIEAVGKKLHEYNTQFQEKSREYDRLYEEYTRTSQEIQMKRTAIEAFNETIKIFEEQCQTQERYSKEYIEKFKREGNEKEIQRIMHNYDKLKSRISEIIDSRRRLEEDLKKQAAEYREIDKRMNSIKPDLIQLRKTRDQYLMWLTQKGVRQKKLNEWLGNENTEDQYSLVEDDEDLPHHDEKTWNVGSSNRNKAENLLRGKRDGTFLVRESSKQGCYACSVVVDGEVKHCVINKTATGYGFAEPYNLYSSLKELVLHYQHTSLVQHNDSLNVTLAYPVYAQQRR

On to “CagA of H. pylori strain 147C with EPIYA B-TPM, HA fusion (natural protein)”, for which the phosphorylation of AKT at threonine 308 in AGS cells after 24 h co-culture with the EPIYA isogenic strain (immunoblot, fold) is 1.7 fold. For the substance “CagA of H. pylori strain 147C with EPIYT B-TPM (wild-type 147C sequence), HA fusion (natural protein)”, the phosphorylation of AKT at threonine 308 in AGS cells after 24 h co-culture with the EPIYT isogenic strain (immunoblot, fold) amounted to 2.4 fold.

The record behind these values is publication PMC4412286.
